# Laboratory results from patent US20210263044A1.
# Biological target: Protein G bound to porous resin beads (Pierce Biotechnology, Protein G UltraLink resin) (UniProt P19909)
# Test: 100 ug IgG mixed with 10 uL Protein G resin bead suspension; supernatant analysed by SDS-PAGE, band pixels
substance,measurement,value
human immunoglobulin G (IgG) (antibody),residual amount of antibody (unbound IgG remaining in the supernatant),3%
